# The nanobody polyreactivity screen of Harvey et al. (2022)
# Assay: yeast display, Sf9 membrane polyspecificity reagent, FACS + sequencing; frameworks hold sequencing errors
# Summary of the method: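 A nanobody's polyreactivity label depends on the gate it was sorted from. Yeast display cells were stained with 10% biotinylated, detergent-solubilized Sf9 membrane reagent for 1 hour at 4 °C, enriched on streptavidin microbeads and sorted by FACS. The low and high (top ~1%) gates were set on anti-HA fluorescence for expression and streptavidin fluorescence for reagent binding.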
row,Sequence,polyreactivity (PSR sort gate)
1,QVQLVESGGRLVQAGGSLRLSCAASGFIFCLNAMGWYRHAQGKERELVATIDNSGGSTYADSVKGRFTISRDNAKNTVYLQMNSLKPEVTAVYYCARDDGLLSYGYWGQGTQVTVSS,low polyreactivity
2,QVQLVESGGGLVQAGGSLRLSCAASGITFYFNAMGWYRQAPGKERELVAAITFSGSSTYYADSVKGRFTISRDKAKNTVYLQMNSLKPEDTAVYYCAAYFTRYDFRWHTYYYWGEGTQVTVSS,low polyreactivity
3,QVQLVESGGGLVQAGGSLRLSCAASGFTFSYYPMGWYRLAPGKERELVAAITSGGSTYYADSVKGRFTISRDNAKNTVYLQMNSLKPEDTAVYYCNARGYGTLNVRRERMDYWGQGTQVTVSS,high polyreactivity
4,QVQLVESGGGLVQAGGSLRLSCAASGRILATYTKGWYRPAPGKERELVATITSGGRTTYADSVKGRFTISRDNAKNTVYLQMNSLKPEDTAVYYCNVAYWYYRKYRPLWGRDYYWGQGTQVTVSS,high polyreactivity
5,QVQLVESGGGLVQAGGSLRLSCAASGRTFRNYAMGWYRQAPGKEREFVAAITGRGGSTYYADSVKGRFTISRDNAKNTVYLQMNSLKPEDTAVYYCAAVSGRTGQRTYYPYYYWGQGTQVTVSS,high polyreactivity
6,QVQLVESGGGLVQAGGSLRLRCAASGSIIGIYAMGWYRQAPGKERELVAAISWSGGSTYYADSVKGRFTISRDNAKNTVYLQMISLKPVDTAVYYCAARGHYQYYWGQGTQVTVSS,low polyreactivity
7,QVQLVESGGGLVQAGGSLRLSCAASGRTFGYYAMGWYRQAPGKERELVAAISGNGDNTYYADSVKGRFTISRDNAKNTVYLQMNCLIPEDTAVYYCSLWYRYKYAPYRLHGYWGQGTQVTVSS,high polyreactivity
8,QVQLVESGGGLVQAGGSLRLSCAASGSTFQQYGMGWYRQAPGKERELVAAITFSDGNTYYADSVKGRFTISRDNAKNTVYLQMNSLKREDTAVYYCNAGYSYGVSYAEGGYWGQGTQVTVSS,low polyreactivity
9,QVQLVESGGGLVQAGGSLRLSCAASGRIFNGYAMGWYRQAPGKERELVAAITTSGGSTYYADSVKGRFTISRDNAKNTVYLQMNSLKPEDTAVYYCAKYYPRYAYDYWGQGTQVTVSS,low polyreactivity
10,QVQLVESGRGLVQAGGSLRLSCAASGSIFGGNGRGWSRQAPGKERELVAAITYSGGSTYYADSVKGRFTISRDNAKNTVYFQMNSLKPEDTAVYYCAKPSRVSIGYDYWGQGTQVTVSS,low polyreactivity
11,QVQLVESGGGLVQAGGSLRLSCAASGNILEGYTMGWYRQAPGQERELVATISGRGGSTYYADSVKGRFTMSRDNAKNTVYLQMHSLKPEDTAVYYCNALPWALYESTSIYYYWGQGTQVTVSS,low polyreactivity
12,QVQLVESGGGLVQAGGSLRLSCAASGIIFVYYVMGWYRQAPGKERELVASIDGSGGSTNYADSVKGRFTISRDNAKYTVYLQMNSLKPEDTAVYYCNADNILYWSTLDYWGQGTQVTVSS,low polyreactivity
13,QVQLVESGGGLVQAGGSLRLSCAASGITFYWYTMGWYRQAPGKERELVADIDGDGGSTYYAVSVKGRFTISRDNAKNTVYLLMNSVKPEDTGVYFCAAQVWPWGYDYWGQGTQVTVSS,high polyreactivity
14,QVQLVESGGGLVQAGGSLRLSCAASGFIFYGYTMGWYRQAPGKERELLARISRRGGSTYYADSVKGRFTISRDNAKNTVYLQMNSLKPEDTAVYYCATDDARRGYGYGYWGQGPQVTVSS,low polyreactivity
15,QVQLVESGGRLVQAGGSLRLSCAASGSTFRGYAMGWYIPAPGKEWELVATITSGGSTKYADSVKGRFTISRDNAKNTVYLQMNSLKPEDTAVYYCNAVPRSWSPYRHWFDYWGQGTQVTVSS,low polyreactivity
16,QVQLVESGGGLVQAGGSLRLSCAASGSTIWSNAMGWYIQAPGKERELVAVISGGTSTNYADSVKGRFTISRDNAKNTVYLQMNSLKPEDTAVYYCAADWGSYLILINDTEMDYWGQGTQVTVSS,low polyreactivity
17,QVQLVESGGGLVQAGGSLRLSCAASGSIFSYYAMGWYRQAPGKERELVATISNSGVSTYYADSVKGRFTISRDNAKNTVYLQMNSLKPEDTAVYYCAKEWLYYNGFFRSYYWGQGTQVTVSS,high polyreactivity
18,QVQLVESGVGLVQARGSLRLSSAASGRIFDRNAMGWYRQSPGNERELVAAIDDSGGDTSYADSVKGRFTISRDNAKNTVYLQMTSLKPEDTAVYYCNAVKQRSSIFDYWGQGTQLTVSS,low polyreactivity
19,QVQLVESGGGLVQAGGSLRISCAASGSNQDSYTMGWYRQAPGKERELVATISTSGGSTYYADSVKGRFTISRDNAKHTVYLQLNSLKPEDTAVYYCNADDPFGPHRYNSWGQGTQVTVSS,low polyreactivity
20,QVQLVESGGGLVQAGGSLRLSCAASGFTFEKYAMGWYRQAPGKERELVAAITQSAGSTYADSVKGRFTISRDNAKNTVYLQMNSLKPVDTAVYYCAARYRYPYYARYGYWGQGTQVTVSS,high polyreactivity

row,Sequence,polyreactivity (PSR sort gate)
1,QVQLVESGGGLVQAGVRLRLSCAASGFIFVVNAMGWYRPATRKEREFVAVISSSTGSTYYADSVKGRFTISRDNAKYTVYLPMNSLKPEDTAVYYCAAASRRRRPLKRMDYWGQGTQVTVSS,low polyreactivity
2,QVQLVESGGGLVQAGGSLRLSCAASGRIFSKYAMGWYRQAPGKEREFVASISYRGGSTYYADSVKGRFTISRDNAKNTVYLQMNSLKPEDTAVYYCATRKYADRESDYWGQGTQVTVSS,high polyreactivity
3,QVQLVESGGGLVQAGGSLRLSCAASGSTFRNYAMGWYRQAPGKERELVAAISGSGGRTNYADSVKGRFTISRDNAKNTVYLQMNSLKPEDTAVYYCNARFPDWALSEISHSTTYGYWGQGTQVTVSS,low polyreactivity
4,QEQLQESGDGLVQAGGSLRLSSAASGTIFSDYGMGGYRQAPGKERELLAGISDGCNTNYTDSVKGRFTISRDNAHRVSADEQPETGGYRGVLLRGSERWLLFYVYWGQGTQGTVSS,high polyreactivity
5,QVQLVESGGGLVQAGGSLRLSCAASGSTFVIYTMGWCRQAPGKERELVAAISWSGGITRYADSVKGRFTISRDNAKNTVYLQMNSLKPEDTAVYYCNASQWPSLFDYWGQGTQVTVSS,low polyreactivity
6,QVQLVESGGGLVQAGGSLRLSCAASGFTFRNNAMGWYRQAPGKDRELVAAITARGGSTYYADSVKGRFTISRDNAKNTVYLQMNSLKPEDTAVYYCATDDYPWGRHPWYAGYDSWGQGTQVTVSS,low polyreactivity
7,QVQLVESGGGLVQAGGSLRLICAASGRIFGYYTMGRYRQAPGKERELVADNNRDGSTYADSVKGRFTISRDNAKNSVYIQMNSLKPEDTAVYYCIAQYDSAYGLGFFIGYFSQYDYWGQGTQVTVSS,low polyreactivity
8,QVQLVESGGGLVQAGGSLRLSCAAAGITFKWNAMGWYRQAPGKERELVAVISSDGRTYYADSVKGRFTSSRDNAKNTVYLQMNSLKPEDTAVYYCARSHSYYPAGPYYYWGQGTQVTVSS,low polyreactivity
9,QVQLEESGGRLVQAGGSLRLSCAASGRTFYPYAMGWYRQAPGKERELVAAISYRGGSTYYADSVKGRFTISRDNAKNTVYLQMNSLKPEDTAVYYCAKRGYASGSKWDYGYWGQGTQVTVSS,high polyreactivity
10,QVQLVESGGGLVQAGGSLRLSCAASGNTFGLYAMGWYIQAPGKERELVAAIRRGGRTYADSVKGRFTISRDNAKNTVYGQMNSLKPEDTAVYYCAAYYVFLDNDYWGQGSQVTVSS,high polyreactivity
11,QVQLVESGGGLVQAGGSLRLSCAASGRIFGGNAMGWYRPAPGKERELVAAISKRGGSTYYADSVKGRFTISRDNAKNTVYLQMNSLKPEDSAVYYCAATAYADQGLDYGYWGQGTQVTVSS,high polyreactivity
12,QVQLVESGGGLVQAGGSLRLTCAASGSTFKYYAMGWYRQAPGKERELVAAINQSGGNTFYAESVKGRFTISRDNAKNSVSLQINSLKPEDTAVYYCAADYYFYTIVSSEMDYWGQGSQVTVSS,high polyreactivity
13,QVQLVESGGGLVQSGRSLRLICAASGSTSTQYAMGWYRQAPGKERELVAGITQSGGSTYYADSVKGRFTISRDNAKNTVYLQMNSLKPEDTAVYYCAAPPGYTGRYEYYYWGQGTQVTVSS,high polyreactivity
14,QLQLVESGGGLVQAGGSLRLSCAASGSTLSDNAMGWYRQAPAKERELVASISWSGGTYYADSVKGRFTISRDNANNTVYLQMNSLKPEDTAVYYCAAYIYYNYSRQYWYDYWGQGTQVTVSS,low polyreactivity
15,QVQLVESGGGLVQAGGSLRLSCAASGSTFYSYAMGWYRQAPGKERELVAAISSGGSTYYADSVKGRFTISRDNAKNTGYLQMNSLKPEDTAVYYCAAKRRAKTGYRYDYWGQGTQVTVSS,high polyreactivity
16,QVQLVESGGGLVQAGGSLRLSCAASGRNFGSYAMGWSRQAPGKERELVAGIRSVGSTNYADSVKGRFTISRDNAKNTVYLQMNSLKPEDTAVYYCAARLWHLSYAGQGGDYWGQGTQVTVSS,low polyreactivity
17,QVQLVESGGGLVQAGGSLRLSCAASGSIFKWYAMGWYRQAPGKERELVASITWSGGSTYYADSVKGRFTISRDNAKNTVYLQMNSLKPEDTAVYYCNALSWVRGDYWGQGTQVTVSS,low polyreactivity
18,QVQLVESGGGLVQAGGSLRLSCAASGSTFYGYTMGWYRRAPGKERELVAAITFRGGSTYYADSVKGRFTISRDNAKNTVYLQMNSLKPEDTAVYYCAAVGRYSRYPYSDTYGYWGQGTQVTVSS,high polyreactivity
19,QVQLVESGGGLVQAGGSLRLSCAASGNIFDTYVMGWYRQAPGKERELVAAITSDGGTYYADSVKGRFTIARDNAKNTVYLQMNSLKPEDTAVYYCAADTYYYPIQDYWGQGTQVTVSS,low polyreactivity
20,QVQLVESGGGFVQAGGSLRLSCAASGITFYSNAMGWYRQAPGKERELGAAISTTGGRTYYADSVKRRFTISRDNAKNTVYLHMNSLKPEDTAVYYCTKAWGRGSLTEPYDYWGQGTQVTVSS,high polyreactivity
